Here are results for 1 molecule from US20230002481A1 (Chugai, published 2023).

This assay has as its target T1, recombinant human C1r2s2 tetramer (human, UniProt P09871 16-688; P00736 18-705).
T1 construct: Heterotetramer of two C1r and two C1s chains, co-expressed in FreeStyle293-F cells; also called human C1r2s2s
T1 chain 1: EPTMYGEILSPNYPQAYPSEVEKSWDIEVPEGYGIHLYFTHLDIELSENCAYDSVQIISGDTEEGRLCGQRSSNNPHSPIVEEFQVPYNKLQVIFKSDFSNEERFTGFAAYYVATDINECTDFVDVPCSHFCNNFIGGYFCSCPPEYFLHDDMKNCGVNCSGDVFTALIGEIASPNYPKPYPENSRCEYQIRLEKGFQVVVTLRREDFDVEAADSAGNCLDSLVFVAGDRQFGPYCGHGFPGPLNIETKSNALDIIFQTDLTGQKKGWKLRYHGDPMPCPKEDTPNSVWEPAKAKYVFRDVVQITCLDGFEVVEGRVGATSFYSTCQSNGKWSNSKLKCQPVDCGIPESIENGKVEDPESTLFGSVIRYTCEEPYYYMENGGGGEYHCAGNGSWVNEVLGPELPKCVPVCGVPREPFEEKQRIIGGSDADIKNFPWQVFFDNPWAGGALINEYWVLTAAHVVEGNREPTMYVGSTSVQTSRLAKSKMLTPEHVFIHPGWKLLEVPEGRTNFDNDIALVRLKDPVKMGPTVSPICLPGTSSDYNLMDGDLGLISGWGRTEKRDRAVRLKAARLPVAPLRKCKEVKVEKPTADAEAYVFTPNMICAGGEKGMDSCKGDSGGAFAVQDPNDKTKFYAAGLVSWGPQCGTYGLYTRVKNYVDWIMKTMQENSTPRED
T1 chain 2: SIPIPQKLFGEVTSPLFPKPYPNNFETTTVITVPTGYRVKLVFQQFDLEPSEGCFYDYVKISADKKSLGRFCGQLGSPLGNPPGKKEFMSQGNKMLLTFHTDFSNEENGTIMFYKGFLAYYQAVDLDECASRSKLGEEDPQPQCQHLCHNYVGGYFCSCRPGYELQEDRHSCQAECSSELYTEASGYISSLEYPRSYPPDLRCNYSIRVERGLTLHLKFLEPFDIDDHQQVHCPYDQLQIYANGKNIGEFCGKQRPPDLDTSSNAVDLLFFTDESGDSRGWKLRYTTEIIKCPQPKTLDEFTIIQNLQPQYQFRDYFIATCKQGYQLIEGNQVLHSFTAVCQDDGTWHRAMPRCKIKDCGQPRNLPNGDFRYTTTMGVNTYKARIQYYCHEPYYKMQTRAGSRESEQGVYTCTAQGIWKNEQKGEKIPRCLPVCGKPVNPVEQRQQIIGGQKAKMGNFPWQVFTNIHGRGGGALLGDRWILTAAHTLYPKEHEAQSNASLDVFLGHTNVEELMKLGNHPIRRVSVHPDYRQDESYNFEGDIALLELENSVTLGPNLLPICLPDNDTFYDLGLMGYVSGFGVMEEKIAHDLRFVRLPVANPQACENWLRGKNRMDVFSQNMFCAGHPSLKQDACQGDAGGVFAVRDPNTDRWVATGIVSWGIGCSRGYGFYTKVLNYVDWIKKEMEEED
Nature of the assay: SPR (Biacore), antibody captured on ProA/G, antigen as analyte, 37 C, pH7.4, 1.2 mM CaCl2; pH 7.4. As for the experimental part: The kinetic parameters of anti-C1s antibodies against recombinant human C1s (as described in PCT/JP2018/042054), human C1r2s2, and cyno C1r2s2 His/Flag (also referred as cyno C1r2s2 in the Table and Figures) were assessed at pH7.4 and pH5.8, at 37 degrees C. using BIACORE (registered trademark) T200 instrument (GE Healthcare) or BIACORE 4000 (GE Healthcare). ProAG (Pierce) was immobilized onto a CM4 sensorchip using amine coupling kit (GE Healthcare) according to the recommended settings by GE Healthcare. Antibodies and analytes were diluted into the respective running buffers, ACES pH7.4 and pH5.8 (20 mM ACES, 150 mM NaCl, 1.2 mM CaCl₂, 1 mg/ml BSA, 1 mg/ml CMD, 0.05% Tween 20, 0.005 w/v % NaN₃). Each antibody was captured onto the sensor surface by ProA/G. Antibody capture levels were typically 100-200 resonance units (RU). Then, recombinant C1s was injected at concentrations of 25 and 50 nM followed by dissociation at pH7.4 and pH5.8. The surface was regenerated using 10 mM Glycine-HCl, pH1.5. Kinetic parameters at neutral pH conditions and acidic conditions were determined by fitting the sensorgrams with 1:1 binding model using BIACORE (registered trademark) T200 Evaluation software, version 2.0 (GE Healthcare) or BIACORE 4000 Evaluation software. The dissociation rate at pH5.8 (after dissociation at pH7.4, indicated as pH5.8* in TABLE 2) was determined by processing and fitting data using Scrubber 2.0 (BioLogic Software) curve fitting software. The association rate (ka), dissociation rate (kd), binding affinity (KD) at pH7.4 and pH5.8 condition, and dissociation rate (kd) at pH5.8* condition of the antibodies are listed in TABLE 2. Some kinetic parameters of COS0098pHv1 in acidic condition were not correctly calculated because of its weak binding response.
Also, to observe the cross-reactivity of anti-C1s antibodies against human C1r2s2 and cyno C1r2s2 (cyno C1r2s2 His/Flag), BIACORE (registered trademark) kinetics analysis was performed.

B1: COS0098bb (antibody, V domains shown)
VH: QSVEESGGRLVTPGTPLTLTCTVSGFSLTKYTVSWVRQAPGKGLEWIGIINTGGSAYYATWAKGRFTFSKTSTTVDLQITSPTTEDTATYFCARGNGDTDYTNLWGPGTLVTVSS
VL: QVLTQTPSSVSEPVGGTVTINCQASENIYSALAWYQQKPGQPPKLLIYGASNLESGVPSRFKGSGSGTQFTLTISDLECADAATYYCQQYYFTSSTFGGGTKVEIK
notes: Anti-C1s rabbit antibody, parent of COS0098pHv1; the antibody was captured by ProA/G; also called anti-C1s antibody COS0098bb
Take B1: the Kd is 0.213 nM, the koff stood at 0.0002 s⁻¹ and the kon came out at 936000 M⁻¹ s⁻¹.

Usually Kd stands for the concentration at which binding is half-saturated. The term koff denotes a measure of how fast the partners let go of each other. Broadly, the kon is the rate constant with which the complex forms.
